For series [1], the target named is T1, hpTEN (Hansenula polymorpha (Ogataea …, UniProt R4IT35 1-159)).
T1 sequence: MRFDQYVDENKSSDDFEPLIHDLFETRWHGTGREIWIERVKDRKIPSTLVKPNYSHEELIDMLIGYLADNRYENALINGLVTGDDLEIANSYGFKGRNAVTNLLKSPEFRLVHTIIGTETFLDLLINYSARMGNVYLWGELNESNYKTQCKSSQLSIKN
The series can be described thus: NMR titration.

The target in series [2] is T1, hpTEN. The series can be described thus: MST.
In the next series the target is T2, hpTEN N53A/S55A/R110A (Hansenula polymorpha (Ogataea …, UniProt R4IT35 1-159, N53A;S55A;R110A)).
T2 sequence: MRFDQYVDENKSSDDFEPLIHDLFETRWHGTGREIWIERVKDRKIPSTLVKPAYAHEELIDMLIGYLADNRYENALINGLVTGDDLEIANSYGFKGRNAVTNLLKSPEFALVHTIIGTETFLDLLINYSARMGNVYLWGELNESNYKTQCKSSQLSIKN
The experiment in a line: MST.

In series [3] the target is T3, hpTEN N53A/S55A/R110A/E119A (Hansenula polymorpha (Ogataea …, UniProt R4IT35 1-159, N53A;S55A;R110A;E119A)).
T3 sequence: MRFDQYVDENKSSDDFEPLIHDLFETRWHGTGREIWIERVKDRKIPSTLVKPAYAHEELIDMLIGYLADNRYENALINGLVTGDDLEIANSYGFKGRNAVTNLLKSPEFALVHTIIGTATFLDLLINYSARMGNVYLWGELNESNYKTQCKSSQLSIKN
The series can be described thus: MST.

B1: E9 RNA-DNA half-fork (DNA:RNA)
DNA: GGGTGGC
RNA: GCCACCCUUCGUCA
The Kd is the constant that tells how readily two partners part at equilibrium. Low values mean higher affinity, high ones lower affinity. B1 showed a dissociation constant (Kd) in the series with hpTEN [1] of 4 ± 2 mM.

B2: FAM-E4 heteroduplex (DNA:RNA)
DNA: GTGGCGGGGTGGCG
?: CGCCACCCCGCCAC
In the case of B2, the affinity in the series with hpTEN [2], expressed as Kd, was 900 ± 200 µM.

B3: FAM-E8 fork (DNA:RNA)
DNA: CTGTTTCGGGTGGC
RNA: GCCACCCUUCGUCA
For B3, the Kd with hpTEN [2] is 400 ± 200 µM; with hpTEN N53A/S55A/R110A, ~300 µM; in series [3], ~300 µM.

B4: E4 RNA-DNA heteroduplex 2 (DNA:RNA)
DNA: GTGGCGGGGTGGCG
?: CGCCACCCCGCCAC
On to B4, for which binding in the series with hpTEN [1] was characterised by a dissociation constant (Kd) of 0.9 ± 0.2 mM.

In the series with hpTEN [1], CGCCACCC (ssRNA) [E1 ssRNA 1] displayed a Kd of 5 ± 2.5 mM. Molecule GTGGCGGGGTGGCG (ssDNA) [FAM-ssDNA E2] came in with a Kd with hpTEN [2] of 1000 ± 200 µM. For CGCCACCCCGCCAC (ssRNA) [E5 ssRNA 2], the Kd in the series with hpTEN [1] is 5 ± 3 mM.

B5: E3 RNA-DNA heteroduplex 1 (DNA:RNA)
DNA: GGGTGGCG
?: CGCCACCC
The molecule B5 came in with a Kd with hpTEN [1] of 1.4 ± 0.3 mM.

The record behind these values is publication PMC5814841.
